Data as given in US20230220031A1 (Stanford University, published 2023).

B1: human p40 tetramer (biotinylated human IL-12p40 on streptavidin-AF647) (ligand)
chain: IWELKKDVYVVELDWYPDAPGEMVVLTCDTPEEDGITWTLDQSSEVLGSGKTLTIQVKEFGDAGQYTCHKGGEVLSHSLLLLHKKEDGIWSTDILKDQKEPKNKTFLRCEAKNYSGRFTCWWLTTISTDLTFSVKSSRGSSDPQGVTCGAATLSAERVRGDNKEYEYSVECQEDSACPAAEESLPIEVMVDAVHKLKYENYTSSFFIRDIIKPDPPKNLQLKPLKNSRQVEVSWEYPDTWSTPHSYFSLTFCVQVQGKSKREKKDRVFTDKTSATVICRKNASISVRAQDRYYSSSWSEWASVPCSGLNDIFEAQKIEWHEHHHHHH
modifications: biotinylated
notes: also called human p40 tetramers
B2: human IL-12p40 (23-328) with C-terminal AviTag and 6x His (ligand)
chain: B1 chain
notes: Immobilized partner in the SPR experiment; also called interleukin-12 subunit p40

Key:
[1] = molecular target: T1, human IL-12Rβ1 on human T cells and NK cells (human, UniProt P42701 24-662); test: flow cytometry, 200 nM human p40 tetramer (streptavidin-AF647) against streptavidin alone, human PBMC: NK cells and CD8+ T cells ex vivo and CD8+ T cell blasts
T1 construct: whole, on cells

[2] = molecular target: T2, human IL-12Rβ1 (soluble, SPR analyte) (UniProt P42701 24-545, limits assumed); test: SPR, IL-12Rβ1 over immobilized IL-12p40, steady state affinity model
T2 construct: also called IL-12 receptor beta 1

Binder | binding result [1] | Kd [2] [nM]
B1 | binds | 
B2 |  | 1700
